To fix the notation:
B1: human oestrogen receptor beta ligand-binding domain ERβ-EF (255–530) (domain or fragment, UniProt Q92731 255-530, looked up)
chain: VRELLLDALSPEQLVLTLLEAEPPHVLISRPSAPFTEASMMMSLTKLADKELVHMISWAKKIPGFVELSLFDQVRLLESCWMEVLMMGLMWRSIDHPGKLIFAPDLVLDRDEGKCVEGILEIFDMLLATTSRFRELKLQHKEYLCVKAMILLNSSMYPLVTATQDADSSRKLAHLLNAVTDALVWVIAKSGISSQQQSMRLANLLMLLSHVRHASNKGMEHLLNMKCKNVVPVYDLLLEMLNAHVLRGCKSSITGSECSPAEDSKSKEGSQNPQSQ
notes: Estradiol (E2) present throughout; Tag removed with TEV protease; the thioredoxin tag was separated from the complex by gel filtration; also called ERβ LBD; Trx-His-tev-ERβ-EF (255–530); source: E. coli BL21(DE3), with 10 μM estradiol; not shown: thioredoxin, N-terminal, cleaved; His, N-terminal, cleaved
B2: TIF2 (623–772), His-tb-TIF2, expressed alone for the complex with ERβ-EF (domain or fragment, human, UniProt Q15596 623-772, looked up)
chain: SERADGQSRLHDSKGQTKLLQLLTTKSDQMEPSPLASSLSDTNKDSTGSLPGSGSTHGTSLKEKHKILHRLLQDSSSPVDLAKLTAEATGKDLSQESSSTAPGSEVTIKQEPVSPKKKENALLRYLLDKDDTKDIGLPEITPKLERLDSK
notes: also called transcriptional intermediary factor 2

In assay [1] the target is B2. The assay can be described thus: native MS. As to conditions: both partners purified.
The target of assay [2] is B1. Description: SEC. The conditions noted are these: partners not purified.
Assay [3] deals with T1, TIF2 (623–772), (His)6-thrombin-TIF2, co-expressed with GRtm-E (human, UniProt Q15596 623-772).
T1 construct: Same limits as m2; here the tags were removed by thrombin cleavage; not shown: His6, N-terminal, cleaved
T1 sequence (looked up): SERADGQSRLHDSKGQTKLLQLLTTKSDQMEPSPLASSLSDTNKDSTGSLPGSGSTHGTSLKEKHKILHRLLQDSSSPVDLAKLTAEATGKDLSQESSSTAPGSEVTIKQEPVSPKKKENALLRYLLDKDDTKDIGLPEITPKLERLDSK
The conditions noted are these: both partners purified.

“And” between values parts separate entries of the source, which are not always exact repeats. Identical values can stand only once.

Regarding B1, the “stoichiometry N” value in assay [1] worked out at 2 ERβ-EF per TIF2. On to B2, for which the binding result in assay [2] is listed as “binds”.

B3: GR_LBD triple mutant C638A, W557T and W712S (residue 524–777) (domain or fragment, human, UniProt P04150 524-777, looked up)
chain: TLPQLTPTLVSLLEVIEPEVLYAGYDSSVPDSTTRIMTTLNMLGGRQVIAAVKWAKAIPGFRNLHLDDQMTLLQYSWMFLMAFALGWRSYRQSSANLLCFAPDLIINEQRMTLPAMYDQCKHMLYVSSELHRLQVSYEEYLCMKTLLLLSSVPKDGLKSQELFDEIRMTYIKELGKAIVKREGNSSQNSQRFYQLTKLLDSMHEVVENLLNYCFQTFLDKTMSIEFPEMLAEIITNQIPKYSNGNIKKLLFHQK
notes: Dexamethasone present throughout; Tags removed with thrombin; The bioinformatics methods print the cysteine as Cys 636, the production methods as C638A; also called GRtm-E; GRtm LBD; not shown: NusA, N-terminal, cleaved; His6, N-terminal, cleaved
As to B3, in assay [3], the “stoichiometry N” value is 2 GR per TIF2 and 1 GRtm-E per TIF2.

The term stoichiometry N denotes the number of molecules, sites or subunits per partner or assembly.
